# Measured values as given in patent publication US11123413B2, “Carbapenemases for use with antibiotics for the protection of the intestinal microbiome” (priority 2015, dated 2021).
# “Also recorded” adds a separate entry of the source.
# B1: P2A: broad spectrum carbapenemase, class B metallo-enzyme requiring zinc, SEQ ID NO: 37; P2A-21 = product of strain SYT-PP0602-21 (protein)
# chain: ETGTISISQLNKNVWVHTELGYFNGEAVPSNGLVLNTSKGLVLVDSSWDNKLTKELIEMVEKKFQKRVTDVIITHAHADRIGGITALKERGIKAHSTALTAELAKNSGYEEPLGDLQTITSLKFGNTKVETFYPGKGHTEDNIVVWLPQYQILAGGCLVKSAEAKDLGNVADAYVNEWSTSIENVLKRYGNINSVVPGHGEVGDKGLLLHTLDLLK
# B2: NDM: New Delhi metallo-β-lactamase NDM-1; NDM-68 = product of strain STY-NP1602-68 (STII Δ35, N-terminal GQQMETG) (protein)
# chain: GQQMETGDQRFGDLVFRQLAPNVWQHTSYLDMPGFGAVASNGLIVRDGGRVLVVDTAWTDDQTAQILNWIKQEINLPVALAVVTHAHQDKMGGMDALHAAGIATYANALSNQLAPQEGMVAAQHSLTFAANGWVEPATAPNFGPLKVFYPGPGHTSDNITVGIDGTDIAFGGCLIKDSKAKSLGNLGDADTEHYAASARAFGAAFPKASMIVMSHSAPDSRAAITHTARMADKLR
# Assays:
# [1] = CENTA chromogenic beta-lactamase biological activity assay (P3A standard curve); type: biochemical; settings: for stability of enzyme activity in cell lysates under differing storage conditions: fresh, frozen (−80° C.) or overnight at 4° C. lysate; for relative potency for CENTA degradation: midpoint of sigmoid curve, protein concentration vs OD405, P3A=1.0; for β-Lactamase: purified carbapenemase, P3A standard
# Description: Biological activity of the carbapenemases, P2A, NDM, and KPC, present in the E. coli cell lysates were evaluated in a microtiter plate assay using CENTA as the chromogenic substrate (Bebrone et al. Antimicrob. Agents Chemother (2001) 45:1868-1871; van Berkel et al., J. Med. Chem. (2013) 56:6945-6953). Briefly, the assay was performed in a 50 mM NaH2PO4 buffer, pH 7.0 with supplementation of 100 uM ZnSO4, with CENTA (Calbiochem Cat #219475) at 50 ug/ml. The assays were run using purified P3A protein for the standard curve at protein concentrations of 0 ng/ml, 3 ng/ml, 6 ng/ml, 8 ng/ml, 10 ng/ml, 15 ng/ml, 20 ng/ml and 40 ng·ml. The plates were read at 405 nm after a 30 minute incubation using a microtiter plate reader. Cell lysates from the bacterial strains showing the highest protein expression levels by SDS-PAGE were evaluated for biological activity, which included P2A strains 5, 15, 20, 21, and 23, NDM strains 53, 58, 63, 68, and 69, and KPC strains 94, 96, 99, 100, 101, 102, 103, and 104 (Table 11). In addition, fresh lysate, frozen (−80° C.) lysate, or lysate stored overnight at 4° C. from strain P2A-21 were compared, and fresh and frozen (−80° C.) lysates from strain NDM-63 were compared to assess the stability of enzyme activity under differing storage conditions. All other lysates were kept frozen at −80° C. until assayed (Table 11).
# Bacterial lysates were analyzed for protein expression by SDS-PAGE. Strong NDM expression was detected in all strains with good reproducibility between shake flasks (FIG. 4). Strong expression of P2A and KPC was also detected with good reproducibility between shake flasks (FIG. 5). In all cases, the vast majority of the protein was detected in the soluble fractions (FIG. 4 and FIG. 5). Biological activity was assessed in the cell lysates using the CENTA assay as described with P3A as the standard. […] The highest biological activity for NDM was from strain NDM-68.
# Aliquots of bacteria were collected early in the fermentation cycle, 16 hours, for P2A and NDM, and 32 hours for KPC, prior to enzyme expression induction, and late in the cycle (48 hours) and subjected to SDS-PAGE (FIG. 6 and FIG. 7) and biological activity analyses (Table 15). […] Fermenters A, B, and C, reached high ODs. […] Bioreactor expression is achieved by changing of growth conditions, lowering phosphate conditions, and/or changing the promoter.
# Frozen cell pellets retained from the fermenter studies, Fermenter A, P2A, Fermenter B, NDM, or from the shake flask studies, shake flask A, KPC, were lysed at 3×7000 psi in a Panda table top cell homogenizer. The lysate was spun at 45000 g for 1 hour, supernatants collected and pH adjusted to 5.5 with 1 M MES. The supernatants were spun at 45000 g for 30 minutes, to remove precipitated debris and filtered through a 0.45 um filter. The filtered supernatants were subjected to cation-exchange chromatography using an SP-sepharose column. NDM was subjected to an additional purification step using a hydrophobic column, phenyl sepharose. The fractions containing the peak levels of protein were concentrated and dialyzed against a 20 mM HEPES, pH 7.5, 150 mM NaCl buffer. The P2A and NDM samples were supplemented with 100 uM ZnSO4 in all steps of the purification process. Purified enzymes yields were calculated to be approximately 600 mg of protein per liter. Purified proteins were analyzed by SDS-PAGE (FIG. 8) and for biological activity (Table 16).
# As different beta-lactamase enzymes display differential affinity and kinetics with diverse substrates, including antibiotics and the CENTA reagent, it was possible to determine the relative specific activities of P2A, NDM, and KPC compared to P3A for CENTA as a substrate now that purified proteins were available and therefore, protein concentrations were known. […]
# E. coli (ATCC 25922) = assay: Antibiotic inactivation screening assay via E. coli growth (96 well plate, OD625); type: cell-based; settings: for activity against cephalosporins and carbapenems / antibiotic degradation profile compared with P3A: 10, 100 or 1000 ng/ml enzyme; for inhibition by beta-lactamase inhibitors: SAM, TZP, CAZ/AVI combinations; for degradation of carbapenems: meropenem, imipenem, ertapenem, doripenem
# Description: To mimic the activity of the carbapenemase enzymes, P2A, NDM, and KPC in the gut in the presence of high antibiotic concentrations, a novel screening assay was performed using a 96 well plate format. The assay was performed by mixing 10, 100 or 1000 μg/ml of the antibiotics, AMP: ampicillin, SAM: ampicillin/sulbactam, PIP: pipercillin, TZP: pipercillin/taxobactam, CRO: ceftriaxone, CTX: cefotaxime, CFZ: cefozolin, CXM: cefuroxime, CFP: cefoperazone, FEP: cefepime, CAZ: ceftazidime, MEM: meropenem, IPM: imipenem, ERT: ertapenem, DOR: doripenem, ATM: aztreonam, CDR: cefdinir; LEX: cephalexin; and CAZ/AVI: […]/avibactam with purified P2A, NDM, KPC, and P3A at concentrations of 10, 100, or 1000 ng/ml in each well of a 96 well microtiter plate. E. coli (ATCC 25922) was added immediately after the addition of the beta-lactamase enzymes, and the plates were incubated overnight. Bacterial growth was quantified by measuring the absorbance at 625 nm (OD625) in a Spectramax 384 Plus plate reader. The analysis was performed twice for each antibiotic. The beta-lactamase activity was determined as positive or negative based on the appearance of bacterial growth in the individual wells. An OD625 of 1.0 or greater indicated maximal bacterial growth, therefore complete antibiotic degradation and beta-lactamase activity. […] FIGS. 21A, 21B, and 21C display the comparison of the four beta-lactamases, P3A (SYN-004), P2A, NDM, and KPC with all 16 antibiotics at beta-lactamase concentrations of 10, 100, or 1000 ng/ml. […]
# [2] = Oral P2A and intravenous cefotaxime in jejunal-fistulated dogs; type: in vivo, laboratory beagles; settings: peroral P2A 1 mg/kg, intravenous cefotaxime 60 mg/kg, omeprazole
# Description: The ability of P2A to degrade cefotaxime in the dog intestinal tract was evaluated using laboratory beagles that had permanent jejunal fistulas. The fistulas allowed the repeated collection of jejunal chyme specimens from these animals. Dogs were treated with peroral P2A (1 mg/kg) in a liquid formulation (PBS buffer), and/or intravenous cefotaxime (60 mg/kg). A single dose of omeprazole (10 mg) was delivered orally to each dog prior to treatment with ceftriaxone and/or P2A to inhibit the HCl activity in the stomach to potentially reduce P2A degradation. Serum samples were collected and serum cefotaxime levels quantified. Jejunal chyme samples were collected and cefotaxime and P2A levels were quantified. Cefotaxime levels in serum and chyme were measured using a plate diffusion method using cefotaxime susceptible Micrococcus luteus TS504 as the test strain. P2A activity levels in chyme were determined spectrophotometrically using meropenem as a substrate. Meropenem hydrolysis was monitored at a wavelength of 297 nm.
# [3] = fermenter cell lysate, 16 hr, Bioreactor A or B (standard phosphate)
# [4] = fermenter cell lysate, 48 hr, Bioreactor A, B or D (standard phosphate)
Molecule,"Activity ([1]; bacterial cell lysate, shake flask culture, Flask A, CENTA, P3A as the standard)","Activity ([1]; bacterial cell lysate, shake flask culture, Flask B, CENTA, P3A as the standard)","Activity [1, 3]","Activity [1, 4]",stability of enzyme activity in cell lysates under differing storage conditions [1],relative potency for CENTA degradation [1],β-Lactamase ([1]; CENTA),activity against cefepime and ceftazidime compared to NDM (E. coli (ATCC 25922)),activity against cephalosporins and carbapenems (E. coli (ATCC 25922)),antibiotic degradation profile compared with P3A (E. coli (ATCC 25922)),inhibition by beta-lactamase inhibitors (E. coli (ATCC 25922)),degradation of carbapenems (E. coli (ATCC 25922)),cefotaxime in jejunal chyme [2],effect on serum levels of cefotaxime [2],"Activity ([1]; fermenter cell lysate, 16 hr, Bioreactor C (extra zinc and extra phosphate))","Activity ([1]; fermenter cell lysate, 48 hr, Bioreactor C (extra zinc and extra phosphate))"
B1,19.6 mg/L,17.0 mg/L,3.2 mg/L,59.7 mg/L,No difference in activity,0.12,317.7 mg/L,"activity was reduced against the cephalosporins, cefepime and ceftazidime",good activity against all carbapenems and most cephalosporins,broader degradation profile than P3A,"resistant to inhibition by sulbactam, tazobactum, and avibactam","efficiently degraded meropenem, imipenem, ertapenem, and doripenem",degraded cefotaxime,does not reduce serum levels of cefotaxime,–,–
B2,–,–,6.6 mg/L,520.0 mg/L,No difference in activity,0.71,1703.8 mg/L,–,efficiently degraded all tested cephalosporins and carbapenems,broader degradation profile than P3A,"resistant to inhibition by sulbactam, tazobactum, and avibactam; also recorded: least affected by sulbactam","efficiently degraded meropenem, imipenem, ertapenem, and doripenem",–,–,5.8 mg/L,14.1 mg/L
